According to patent US20260167706A1 (ADRENOMED, published 2026):
Like-named read-outs stand apart in the source and are kept apart here. Where no end group is shown, it is not given here.

B1: Murine ADM 1-50 (peptide)
peptide: YRQSMNQGSRSNGCRFGTCTFQKLAHQIYQLTDKDKDGMAPRNKISPQGY-NH2
modifications: ends and bridges not checked
B2: human Adrenomedullin (mature ADM; amidated ADM; bio-ADM), amino acids 1-52 (peptide)
peptide: YRQSMNNFQGLRSFGCRFGTCTVQKLAHQIYQFTDKDKDNVAPRSKISPQGY-NH2
modifications: ends and bridges not checked

What was measured:
[1] = target: T1, human recombinant adrenomedullin receptor (CRLR + RAMP3) (human); assay: cell-based or functional assay
[2] = target: T1, human recombinant adrenomedullin …; assay: cell-based or functional assay; remark: listed apart in the source

T1 sequence (Q16602 whole entry, chain 1 of 2): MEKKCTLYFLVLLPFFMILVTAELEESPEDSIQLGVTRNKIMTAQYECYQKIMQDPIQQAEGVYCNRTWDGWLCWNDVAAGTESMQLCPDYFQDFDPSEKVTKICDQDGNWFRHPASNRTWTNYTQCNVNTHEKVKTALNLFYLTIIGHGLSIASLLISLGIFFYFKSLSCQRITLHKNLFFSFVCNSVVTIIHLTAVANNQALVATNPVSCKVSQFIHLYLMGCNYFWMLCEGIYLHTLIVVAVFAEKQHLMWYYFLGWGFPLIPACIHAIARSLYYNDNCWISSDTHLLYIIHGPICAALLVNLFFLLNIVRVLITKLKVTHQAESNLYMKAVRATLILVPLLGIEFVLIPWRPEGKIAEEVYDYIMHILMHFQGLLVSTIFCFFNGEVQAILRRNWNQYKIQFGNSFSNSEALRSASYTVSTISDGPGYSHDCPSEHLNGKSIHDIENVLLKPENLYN
T1 sequence (O60896 whole entry, chain 2 of 2, further chain): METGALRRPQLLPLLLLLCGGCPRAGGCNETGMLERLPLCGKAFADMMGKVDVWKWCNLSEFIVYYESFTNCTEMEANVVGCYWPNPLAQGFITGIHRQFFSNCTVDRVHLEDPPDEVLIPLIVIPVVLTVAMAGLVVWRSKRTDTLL

Row | Binder | EC50 (read off the curve); cAMP, % activation [1] [pM] | EC50 (read off the curve); cAMP, % activation [2] [pM]
1 | B1 | ~80 | –
2 | B2 | – | ~1000
